Data published in the supplement of paper PMC7125110.
± gives the standard error. This sample holds only a part of the variants without activity.

B1: glmS ribozyme (parent)
chain: AUAAAAGCGCCAGAACUACAGAAAUGUAGUUGACGAGGAGGAGGUUUAUCGAAUUUUCGGCGGAUGCCUCCAAA

How the values were obtained:
Conditions in all cases: with glucosamine-6-phosphate
glucosamine-6-phosphate [1] = variants of: B1; assay: self-cleavage kobs at 160 uM GlcN6P; higher = faster cleavage; RNA array
How it was run: (§1)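 A hybridised Cy3 probe tracked barcoded ribozyme variants, transcribed in situ by E. coli RNA polymerase on sequenced MiSeq chips, at 37 °C. The variants received 40 μM to 10 mM glucosamine-6-phosphate in HEPES/KCl/Mg(OAc)2 buffer. kobs came from decay fits and kcat and KM from weighted Michaelis–Menten fits.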

glucosamine-6-phosphate [2] = variants of: B1; assay: self-cleavage kobs at 640 uM GlcN6P; higher = faster cleavage; RNA array
How it was run: as §1

glucosamine-6-phosphate [3] = variants of: B1; assay: self-cleavage kobs at 2500 uM GlcN6P; higher = faster cleavage; RNA array
How it was run: as §1

glucosamine-6-phosphate [4] = variants of: B1; assay: self-cleavage kobs at 10000 uM GlcN6P; higher = faster cleavage; RNA array
How it was run: as §1

Row | Variant | self-cleavage kobs at 160 uM GlcN6P (glucosamine-6-phosphate [1]) | self-cleavage kobs at 640 uM GlcN6P (glucosamine-6-phosphate [2]) | self-cleavage kobs at 2500 uM GlcN6P (glucosamine-6-phosphate [3]) | self-cleavage kobs at 10000 uM GlcN6P (glucosamine-6-phosphate [4])
1 | G9A G29U A36C | < 1e-05 s⁻¹ | < 1e-05 s⁻¹ | < 1e-05 s⁻¹ | –
2 | A14C G29U C50U A52G C58G | 0.000474 ± 0.00018 s⁻¹ | – | 7.98e-05 ± 3.9e-05 s⁻¹ | –
3 | G9A A15U C16A G63C C68U | – | < 1e-05 s⁻¹ | – | –
4 | A12G U47G C50A C68G | – | 0.000111 ± 4.4e-05 s⁻¹ | – | –
5 | G9C A15C A64C C68G | – | < 1e-05 s⁻¹ | – | –
6 | A42C U47C | < 1e-05 s⁻¹ | < 1e-05 s⁻¹ | < 1e-05 s⁻¹ | –
7 | C8U G29A G37A A39U C61U A64C | – | < 1e-05 s⁻¹ | – | –
8 | C50G U57G G66U C70G | – | 0.000982 ± 0.0003 s⁻¹ | 0.000139 ± 4.9e-05 s⁻¹ | –
9 | A6G G7U U31C A36C | – | < 1e-05 s⁻¹ | < 1e-05 s⁻¹ | –
10 | U31G G38A U57C C58U G66C | – | < 1e-05 s⁻¹ | – | –
11 | U31C G38U G41U G63C | – | < 1e-05 s⁻¹ | – | –
12 | A12U U30A G38U | – | < 1e-05 s⁻¹ | – | –
13 | A14U G35A A64G | – | < 1e-05 s⁻¹ | – | –
14 | C8A U57A | < 1e-05 s⁻¹ | < 1e-05 s⁻¹ | < 1e-05 s⁻¹ | < 1e-05 s⁻¹
15 | C8U U31G C34U U47A | – | < 1e-05 s⁻¹ | – | –
16 | A14U G26A C68G | – | 5e-05 ± 2e-05 s⁻¹ | 4.16e-05 ± 1.8e-05 s⁻¹ | –
17 | A14G A36C G44C G51A G62A | < 1e-05 s⁻¹ | – | – | –
18 | G32A A36C U55G C67G C68G | – | 0.000126 ± 3.4e-05 s⁻¹ | 4.75e-05 ± 1.2e-05 s⁻¹ | –

Row | Variant | self-cleavage kobs at 160 uM GlcN6P (glucosamine-6-phosphate [1]) | self-cleavage kobs at 640 uM GlcN6P (glucosamine-6-phosphate [2]) | self-cleavage kobs at 2500 uM GlcN6P (glucosamine-6-phosphate [3]) | self-cleavage kobs at 10000 uM GlcN6P (glucosamine-6-phosphate [4])
19 | G29U A33U G44U A52U | – | < 1e-05 s⁻¹ | – | –
20 | U49C C61A | – | < 1e-05 s⁻¹ | – | –
21 | A6G C11U A15U C50U | < 1e-05 s⁻¹ | – | – | < 1e-05 s⁻¹
22 | C10U U31C A52U | – | < 1e-05 s⁻¹ | – | –
23 | C10G A53U U57A | – | < 1e-05 s⁻¹ | – | –
24 | G32C C34A C67G C70A | < 1e-05 s⁻¹ | – | – | –
25 | A12U A15G G41A C61A | – | < 1e-05 s⁻¹ | – | –
26 | C8U A14C A15C | – | < 1e-05 s⁻¹ | – | –
27 | C8A G9C G37C | – | < 1e-05 s⁻¹ | – | –
28 | C11G C34G G59A | – | < 1e-05 s⁻¹ | < 1e-05 s⁻¹ | –
29 | A18C G35U U57A | – | < 1e-05 s⁻¹ | – | –
30 | A12G G29U G37C | – | < 1e-05 s⁻¹ | < 1e-05 s⁻¹ | –
31 | A33U G44U A48C | – | < 1e-05 s⁻¹ | – | –
32 | C50G A53C U54A U69A | – | 0.000691 ± 0.00026 s⁻¹ | 0.000283 ± 0.00011 s⁻¹ | –
33 | G29C U30G C70U | – | 0.000861 ± 0.00017 s⁻¹ | – | –
34 | A15U A28C A33U | – | < 1e-05 s⁻¹ | – | –
35 | U49A G66A | – | < 1e-05 s⁻¹ | – | –
36 | G41U C68U U69C | < 1e-05 s⁻¹ | < 1e-05 s⁻¹ | < 1e-05 s⁻¹ | –
